Experiment [1] deals with T1, 14mer peptide PARLLPNAIGRGKW, equivalent to residues Pro86 to Trp99 of sclerostin loop 2 (Homo sapiens).
T1 construct: loop 2 of sclerostin; also called first peptide; base peptide; source: synthetic peptide, synthesized on solid support (array)
T1 chain: PARLLPNAIGRGKW
In words: peptide or protein array; truncation array: all truncated variants (3 to 14mer) of two 14mer loop 2 peptides synthesized on solid support; Fab added, modified ELISA with goat anti-human peroxidase coupled secondary antibody. The following applies: both partners purified.

In experiment [2] the target is T2, 14mer peptide NAIGRGKWWRPSGP, equivalent to residues Asn92 to Pro105 of sclerostin loop 2 (Homo sapiens).
T2 construct: loop 2 of sclerostin; also called second peptide; source: synthetic peptide, synthesized on solid support (array)
T2 chain: NAIGRGKWWRPSGP
Described as above. The following applies: both partners purified.

Experiment [3] deals with T3, human sclerostin (Homo sapiens, UniProt Q9BQB4).
T3 construct: sclerostin, human; The ELISA may have used the Sf9-made antigen instead; also called hScl
Nature of the experiment: ELISA; plates coated with 5 µg/ml protein in PBS; Fab at 2 µg/ml, 1 h at room temperature; detection with anti-human Fab-alkaline phosphatase and AttoPhos; signal/noise over the background of BSA, N1-CD33-His6 and GST. The following applies: both partners purified.

Experiment [4] concerns the target T4, murine sclerostin (Mus musculus, UniProt Q99P68).
T4 construct: sclerostin, murine; The ELISA may have used the Sf9-made antigen instead; also called mScl
The description is as above. The following applies: both partners purified.

The target in experiment [5] is T3, human sclerostin. In words: SPR; ProteOn, 25°C, HBS150T (10 mM HEPES, 150 mM NaCl, pH 7.5, 0.005% Tween 20); sclerostin proteins or variants amine-coupled to about 600 RU on a GLC chip; Fabs as analytes at 100, 75, 50, 25, 12.5 and 6.25 nM (one-shot kinetics); 1:1 Langmuir model. The following applies: both partners purified. In general terms: SPR reads the build-up and loss of mass on a sensor chip optically.

Experiment [6] deals with T4, murine sclerostin. The description is as above. The following applies: both partners purified.
The target in experiment [7] is T3, human sclerostin. Nature of the experiment: cell-based or functional assay.
Experiment [8] concerns the target T4, murine sclerostin. In words: cell-based or functional assay.
Experiment [9] concerns the target T3, human sclerostin. In words: cell-based or functional assay. This is another data set of the same source.
For experiment [10], the target named is T4, murine sclerostin. In words: cell-based or functional assay. This is another data set of the same source.
Experiment [11] has as its target T3, human sclerostin. In words: SPR; ProteOn, 25°C, HBS150T (10 mM HEPES, 150 mM NaCl, pH 7.5, 0.005% Tween 20); sclerostin proteins or variants amine-coupled to about 600 RU on a GLC chip; Fabs as analytes at 100, 75, 50, 25, 12.5 and 6.25 nM (one-shot kinetics); 1:1 Langmuir model. The following applies: both partners purified. The source holds these as a separate data set.

The target in experiment [12] is T4, murine sclerostin. The experiment is described as above. The following applies: both partners purified. The source holds these as a separate data set.
Experiment [13] concerns the target T5, 14mer peptide PARLLPNAIGRGKW (Homo sapiens).
T5 construct: stretch of loop 2 of sclerostin; also called base peptide; loop 2 mimicking peptide; source: synthetic peptide, on solid support (peptide array)
T5 chain: PARLLPNAIGRGKW
Nature of the experiment: peptide or protein array; peptides synthesised on solid support (overlapping, replacement and truncation libraries); Fab detected by a modified ELISA with goat anti-human peroxidase-coupled secondary antibody. The following applies: both partners purified.

Changes are numbered by the printed parent chain. A value given as a limit tells only on which side of the number the result lay.

Broadly, the Kd is the equilibrium constant for the complex coming apart. The koff is the rate constant with which the complex falls apart. A low value points to slow dissociation. Usually kon stands for the rate constant with which the complex forms. A high value points to fast association.

T4 sequence (Q99P68 24-211): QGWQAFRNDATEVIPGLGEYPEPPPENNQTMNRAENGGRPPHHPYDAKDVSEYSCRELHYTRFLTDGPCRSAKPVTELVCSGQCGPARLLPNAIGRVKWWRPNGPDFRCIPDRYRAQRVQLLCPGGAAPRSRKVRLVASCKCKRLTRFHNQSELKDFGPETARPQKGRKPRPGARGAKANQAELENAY
T3 sequence (Q9BQB4 24-213): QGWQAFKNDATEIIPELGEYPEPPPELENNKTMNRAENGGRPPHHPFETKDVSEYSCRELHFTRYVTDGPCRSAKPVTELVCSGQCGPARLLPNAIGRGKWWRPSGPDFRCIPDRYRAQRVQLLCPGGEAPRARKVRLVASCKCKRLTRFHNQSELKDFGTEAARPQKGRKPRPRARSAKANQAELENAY

B1: Fab AbD09097 (Fab, V domains shown)
VH: QVQLVESGGGLVQPGGSLRLSCAASGFTFTNYYMHWVRQAPGKGLEWVSTIAYDGSSTYYADSVKGRFTISRDNSKNTLYLQMNSLRAEDTAVYYCARWFTDDIWGQGTLVTVSS
VL: not shown
notes: also called ancestor Fab; source: E. coli, periplasmic expression, purified by the hexahistidine-tag
On to B1, for which the binding result in [1] and in experiment [2] was “binds” throughout.

B2: Fab AbD12687 (Fab, V domains shown)
VH: B1 VH
VL: DIVLTQSPATLSLSPGERATLSCRASQSISSNELAWYQQKPGQAPRLLIYDTSNRATGVPARFSGSGSGTDFTLTISSLEPEDFAVYYCQQDVVMPITFGQGTKVEIK
notes: source: E. coli, periplasmic expression, purified via hexahistidine-tag
As for B2, the figures for the “ELISA signal/noise ratio (fold background)” value in experiment [3] and in experiment [4] were 57 fold background and 50 fold background, respectively. Also, the Kd in [5] was found to be 228 nM; in experiment [6] it was 120 nM. In addition, the koff in experiment [5] amounted to 0.0047 s⁻¹; in [6], 0.0017 s⁻¹. The kon in experiment [5] was 23300 M⁻¹ s⁻¹; in experiment [6], 16000 M⁻¹ s⁻¹.

B3: Fab AbD09097 (Fab, V domains shown)
VH: B1 VH
VL: not shown
notes: format Fab-Thr-MH with a thrombin site (-FLVPRGS-) between CH1 and the tags; kappa light chain; From the HuCAL GOLD phage library, panned on murine sclerostin; also called ancestor Fab AbD09097; HCA230Z (as full-length IgG, AbD Serotec); source: E. coli, periplasmic expression, purified via hexahistidine-tag
As for B3, in experiment [7], the “Wnt1 reporter gene assay with 20 nM human sclerostin and 0-670 nM AbD09097: EC50 of the rescue of Wnt1 activity” value came out at 197 nM. Besides, in [8], the “Wnt1 reporter gene assay with 20 nM murine sclerostin and 0-670 nM AbD09097: EC50 of the rescue of Wnt1 activity” value is 46 nM. The “Wnt1 reporter gene assay (HEK293TSA M50, luciferase): fold change of the IC50 of human sclerostin for inhibition of Wnt1 activity with 500 nM Fab; the blocked pair is sclerostin and LRP5/6” value in [9] was found to be 6.4 fold. The “Wnt1 reporter gene assay (HEK293TSA M50, luciferase): fold change of the IC50 of murine sclerostin for inhibition of Wnt1 activity with 500 nM Fab; the blocked pair is sclerostin and LRP5/6” value in experiment [10] was 12.6 fold. Also, the “ELISA signal/noise ratio (fold background)” value in experiment [3] was found to be 34 fold background. Moreover, in [4], the “ELISA signal/noise ratio (fold background)” value worked out at 39 fold background. Also, in [11], the affinity, expressed as Kd, was 260 nM; the koff stood at 0.0016 s⁻¹; the kon was 6600 M⁻¹ s⁻¹. For the same molecule, in experiment [12], the affinity, expressed as Kd, was 46 nM; the koff stood at 0.00018 s⁻¹; the kon is 4400 M⁻¹ s⁻¹. Besides, the binding result in [13] is on record as “binds”.

B4: Fab AbD12682 (Fab, V domains shown)
VH: B1 VH
VL: not shown
notes: consensus motif -QQDXXFPI- (X: His, Glu, Val or Ser); source: E. coli, periplasmic expression, purified via hexahistidine-tag
For B4, the “ELISA signal/noise ratio (fold background)” value in [3] worked out at 57 fold background. In addition, the “ELISA signal/noise ratio (fold background)” value in [4] worked out at 44 fold background. Besides, in experiment [13], the binding result is on record as “binds”. In [5], this molecule showed a Kd of 23 nM, a koff of 0.00066 s⁻¹ and a kon of 32000 M⁻¹ s⁻¹. Also, in experiment [6], binding was characterised by a dissociation constant (Kd) of 13 nM, the koff was found to be 0.00025 s⁻¹ and the kon came to 22000 M⁻¹ s⁻¹.

B5: Fab AbD12685 (Fab, V domains shown)
VH: B1 VH
VL: B2 VL with V93Y, V94T, M95F, I97L
notes: as for B2
On to B5, for which the “ELISA signal/noise ratio (fold background)” value in experiment [3] is 61 fold background; in experiment [4] it was 46 fold background. In addition, the Kd in [5] was 56 nM; in experiment [6], 145 nM. Further, the koff was 0.001 s⁻¹ in experiment [5] and 0.00029 s⁻¹ in [6]. The kon in experiment [5] is 20400 M⁻¹ s⁻¹; in experiment [6], 13000 M⁻¹ s⁻¹.

B6: Fab AbD12682 (Fab, V domains shown)
VH: B1 VH
VL: not shown
notes: as the light chain of Dm1 up to the Cys before CDR3L; as the light chain of Dm1 from Thr97 (Kabat) to the end; heavy chain extension as in Dm1; source: E. coli, periplasmic expression, purified by the hexahistidine-tag
For B6, the binding result in [1] is “binds”.

B7: Fab AbD12684 (Fab, V domains shown)
VH: B1 VH
VL: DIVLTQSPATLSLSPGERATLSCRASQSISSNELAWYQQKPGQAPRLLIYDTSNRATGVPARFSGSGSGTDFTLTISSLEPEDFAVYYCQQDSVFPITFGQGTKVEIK
notes: as for B4
As for B7, the “ELISA signal/noise ratio (fold background)” value in experiment [3] was 73 fold background. The “ELISA signal/noise ratio (fold background)” value in [4] came to 53 fold background. Besides, in experiment [5], the Kd was determined as 32 nM, the koff was determined as 0.00073 s⁻¹ and the kon turned out to be 25300 M⁻¹ s⁻¹. In [6], this molecule returned a Kd of 15 nM, a koff of 0.00025 s⁻¹ and a kon of 18400 M⁻¹ s⁻¹.

B8: Fab AbD12683 (Fab, V domains shown)
VH: B1 VH
VL: not shown
notes: carries a tyrosine at position 3 of CDR3L; source: E. coli, periplasmic expression, purified via hexahistidine-tag
As to B8, the “ELISA signal/noise ratio (fold background)” value in experiment [3] was 64 fold background. The “ELISA signal/noise ratio (fold background)” value in experiment [4] worked out at 28 fold background. Moreover, the binding result in [13] is on record as “binds”. In [5], this molecule yielded a dissociation constant Kd of 53 nM, a koff of 0.00033 s⁻¹ and a kon of 6400 M⁻¹ s⁻¹. In experiment [6], the Kd is less than 1 nM, the koff was less than 1e-06 s⁻¹ and the kon was found to be 3400 M⁻¹ s⁻¹.

B9: Fab AbD12681 (Fab, V domains shown)
VH: B1 VH
VL: B2 VL with V93H, V94E, M95F
notes: as for B4
As to B9, the figures for the “ELISA signal/noise ratio (fold background)” value in experiment [3] and in [4] were 44 fold background and 26 fold background, respectively. The Kd in experiment [5] is 66 nM; in experiment [6] it was 35 nM. For the same molecule, the koff was 0.0016 s⁻¹ in experiment [5] and 0.00054 s⁻¹ in experiment [6]. In addition, the kon in [5] was found to be 27400 M⁻¹ s⁻¹; in experiment [6], 17000 M⁻¹ s⁻¹.

B10: Fab AbD12683 (Fab, V domains shown)
VH: B1 VH
VL: not shown
notes: as for B6
As for B10, the binding result in [1] is on record as “binds”.

Values taken from publication PMC5008011, “The sclerostin-neutralizing antibody AbD09097 recognizes an epitope adjacent to sclerostin's binding site for the Wnt co-receptor LRP6” (Open Biology, 2016).
